Experimental findings from the supplement of paper PMC10567573 are described below.

± gives the standard deviation.

A short description of this data set: protein stability index of a GFP-peptide fusion (GPS, HEK-293T) (PSI 1-6); higher = more stable.
Setting [1] is: treatment: DMSO, c terminus: a fixed tail appended.
Setting [2] is: treatment: MLN4924 1 uM, 8 h, c terminus: a fixed tail appended.
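Also: 24-mer peptide tiles fused after GFP, lentivirally expressed, FACS-sorted into six equal bins by GFP/DsRed ratio, decoded by Illumina sequencing, PSI is the read-weighted mean bin number.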

Regarding DCVDGLFKEVKEKFKGWVSYSTSE [DLC1], the protein stability index was found to be 3.04 ± 0.5 under setting [1] and 3.33 ± 0.3 under setting [2].

Regarding DDFDEDELMAELEELEQEELNKKM [CHMP4C], the protein stability index runs as follows: under setting [1], 5.16 ± 0.85; under setting [2], 5.6 ± 0.3.

Regarding DELDMSPGDPKWLDVIERDLHRQF [TBC1D10A], the protein stability index by setting is: under setting [1], 3.84 ± 0.21; under setting [2], 3.8 ± 0.12.

Turning to DERRRLLEQKTQESQKKKQQDDSD [ZNF207], the protein stability index is, setting by setting: under setting [1], 5.54 ± 0.33; under setting [2], 5.53 ± 0.25.

In the case of DFLEEVEEIVFNLTNNVDLDNTKK [MNAT1], the protein stability index is 3.03 ± 0.38 under setting [1] and 3.18 ± 0.26 under setting [2].

On to DFVLEMNTAKSTSRVTAFLDDLSQ [NLN], for which the protein stability index runs as follows: under setting [1], 2.75 ± 0.26; under setting [2], 2.72 ± 0.33.

Turning to DGDAPGSLLPAQVAACAQTVVSLA [CEBPD], the protein stability index runs as follows: under setting [1], 4.26 ± 0.19; under setting [2], 4.12 ± 0.39.

As for DGITNGASWYSLSKGMQDFNYLHT [CPN1], the protein stability index runs as follows: under setting [1], 2.35 ± 0.13; under setting [2], 2.43 ± 0.22.

As for DGKPFPELVLEQQLDREAQARHQL [PCDHGC5], the protein stability index amounted to 4.92 ± 0.33 under setting [1] and 5.04 ± 0.27 under setting [2].

For DGKRCRRKDVCKSTHHGCEHICVN [MATN2], the protein stability index is 3.65 ± 0.3 under setting [1] and 3.92 ± 0.21 under setting [2].

DGSTYKIELEGISVMVMREILDYI [GAN]: the protein stability index came out at 2.3 ± 0.39 under setting [1] and 1.93 ± 0.15 under setting [2].

In the case of DHELGRCTDSVVKYELMRPSNKAP [EHMT1], the protein stability index reads like this: under setting [1], 4.19 ± 0.091; under setting [2], 4.23 ± 0.31.

Turning to DHKRETERVVREALEKLRSEMEEE [ZMYND11], the protein stability index came out at 4.99 ± 0.18 under setting [1] and 5.35 ± 0.12 under setting [2].

As for DIKAAFAPFGRISDARVVKDMATG [TIA1], the protein stability index runs as follows: under setting [1], 3.31 ± 0.16; under setting [2], 3.18 ± 0.4.

For DLIGLPWVCFIYTIMSLASLLFVV [SLC2A12], the protein stability index runs as follows: under setting [1], 4.15 ± 0.79; under setting [2], 3.95 ± 0.71.

For the sequence DLLAYGAKAELPKYKSFNRTAMPY [MYOZ1], the protein stability index is, setting by setting: under setting [1], 2.42 ± 0.12; under setting [2], 2.29 ± 0.19.

As for DLLCAQLQLPQLSDLGLLRLCTWL [FANCE], the protein stability index is, setting by setting: under setting [1], 2.53 ± 0.35; under setting [2], 2.78 ± 0.42.

In the case of DLNSKGKKREFRFHPIKETVVEEP [INTS3], the protein stability index was 3 ± 0.65 under setting [1] and 3.64 ± 0.53 under setting [2].

For DLSSLRAKYPHDVVNHLSCDEARN [SPACA9], the protein stability index was 4.47 ± 0.21 under setting [1] and 4.33 ± 0.47 under setting [2].

As for DLYNWEVAIFGPPNTLYEGGYFKA [UBE2R2], the protein stability index is, setting by setting: under setting [1], 2.66 ± 0.4; under setting [2], 2.32 ± 0.37.

Regarding DNSDYDYSALSCTSDASFHPAFLP [KCNG1], the protein stability index is, setting by setting: under setting [1], 3.59 ± 0.26; under setting [2], 3.46 ± 0.32.

Consider DPAYIAVLVLIFNAAKTCPTMPAL [INTS4], for which the protein stability index runs as follows: under setting [1], 3.12 ± 0.56; under setting [2], 3.09 ± 0.47.

In the case of DPKRRMTIAQSLEHSWIKAIRRRN [DAPK3], the protein stability index is 3.67 ± 0.33 under setting [1] and 3.91 ± 0.35 under setting [2].

For the sequence DPLNICVFILLLVFIVVKCFTSE [RTP4], the protein stability index was found to be 2.93 ± 0.24 (treatment: DMSO, c terminus: native) and 2.89 ± 0.098 (treatment: MLN4924 1 uM, 8 h, c terminus: native).

For DQDLDALMADLVADISEAEQRTIQ [APBB1IP], the protein stability index is, setting by setting: under setting [1], 4.48 ± 0.36; under setting [2], 4.56 ± 0.21.

Consider DQDYLHSLGKARTAQVQKDARIGE [FLOT1], for which the protein stability index reads like this: under setting [1], 4.86 ± 0.16; under setting [2], 4.74 ± 0.19.

As for DQERIKVERKRLRNRLAATKCRKR [JUNB], the protein stability index was found to be 4.83 ± 0.19 under setting [1] and 4.53 ± 0.17 under setting [2].

Consider DRGLRGFPKNRVLEGVIDRYQQSK [TRIM9], for which the protein stability index stood at 3.98 ± 0.35 under setting [1] and 4.01 ± 0.29 under setting [2].

DSETLDLEEAEGAVGYQPEYSKFC [NFE2L1] returned a protein stability index under setting [1] of 5.13 ± 0.34 and a protein stability index under setting [2] of 5.01 ± 0.5.

DSGVQACFNRSREYQLNDSAAYYL [GNAI1]: the protein stability index is 2.8 ± 0.15 under setting [1] and 2.75 ± 0.17 under setting [2].

DSSNSMQTIQKTTTRRIVDGKVVS [KRT18]: the protein stability index worked out at 3.61 ± 0.19 under setting [1] and 3.73 ± 0.31 under setting [2].

Regarding DTANEIGQVLHFENVKDVPFGFQT [SERPINB5], the protein stability index by setting is: under setting [1], 3.74 ± 0.075; under setting [2], 3.99 ± 0.2.

Take DTTTPTTSAITASRSESPPPLSDP [BRD3]: the protein stability index is, setting by setting: under setting [1], 5.45 ± 0.42; under setting [2], 5.57 ± 0.12.

For DWMAAMFGGPFVESSTREVVFPYT [RHOBTB2], the protein stability index runs as follows: under setting [1], 2.23 ± 0.3; under setting [2], 2.04 ± 0.47.

For the sequence DYSQLNESTTKESSEASQLEDAAG [FBXO34], the protein stability index runs as follows: under setting [1], 5.47 ± 0.28; under setting [2], 5.35 ± 0.46.

In the case of DYTWTEFDEPFLTRNVQSVSIIDT [TRIP13], the protein stability index by setting is: under setting [1], 3.1 ± 0.24; under setting [2], 3.19 ± 0.23.

For the sequence EAACNDVDRWPAPVPGKTLHLPIM [DENND6A], the protein stability index reads like this: under setting [1], 3.52 ± 0.35; under setting [2], 3.19 ± 0.37.

As to EAFAASAVGSGERRGGGPVFPAPV [ZBTB22], the protein stability index is 3.93 ± 0.32 under setting [1] and 4.03 ± 0.28 under setting [2].

Regarding EAQLLQLKVKCLNNLAASQLKLDH [FKBP8], the protein stability index reads like this: under setting [1], 2.69 ± 0.26; under setting [2], 2.95 ± 0.23.

Regarding EAWYEDLQEVLSSDENGGTYVSPP [DDIT3], the protein stability index reads like this: under setting [1], 4.89 ± 0.11; under setting [2], 4.93 ± 0.15.

Turning to ECNECGKAFSRSSGLFNHRGIHNI [ZSCAN9], the protein stability index reads like this: under setting [1], 2.48 ± 0.59; under setting [2], 2.16 ± 0.31.

For the sequence EDDRDGLLAEREQEEAIAQFPYVE [TMEM106C], the protein stability index is, setting by setting: under setting [1], 5.5 ± 0.19; under setting [2], 5.64 ± 0.1.

Regarding EDFLLKKPIVPTDGKRVIVVFHCE [CDC25A], the protein stability index runs as follows: under setting [1], 2.37 ± 0.55; under setting [2], 2.25 ± 0.64.

With EDGEDFNLGDALDSSNSMQTIQKT [KRT18], the protein stability index runs as follows: under setting [1], 5.44 ± 0.29; under setting [2], 5.41 ± 0.32.

In turn, EDQGGLEAVRQEMRRQEPLPPPPP [WAS] returned a protein stability index under setting [1] of 5.3 ± 0.15 and a protein stability index under setting [2] of 5.42 ± 0.22.

With EDSSNQEEEGPSTFPDLESEFQAA [MAGEA3], the protein stability index runs as follows: under setting [1], 5.51 ± 0.28; under setting [2], 5.48 ± 0.16.

EEADDTRYTQGTGGDEVDDSVSVN [ZC3H15] registered a protein stability index under setting [1] of 5.63 ± 0.19 and a protein stability index under setting [2] of 5.62 ± 0.19.

With EEANADLEVKIRDWYQRQRPSEIK [KRT16], the protein stability index was found to be 4.14 ± 0.64 under setting [1] and 4.72 ± 0.27 under setting [2].

As for EEDSFYRSSYPQQQGLGASYRTES [TBX5], the protein stability index was determined as 4.37 ± 0.2 under setting [1] and 4.22 ± 0.15 under setting [2].

In the case of EEEERDQALQAKASLTIPLVPETE [YJU2B], the protein stability index by setting is: under setting [1], 5.42 ± 0.16; under setting [2], 5.5 ± 0.12.

For the sequence EEENIGCEEKAKKNANRPLLDEIV [ACBD3], the protein stability index is, setting by setting: under setting [1], 5.25 ± 0.24; under setting [2], 5.46 ± 0.24.

Turning to EESGAQLLLEMLTFNPHKRISAFR [CDK4], the protein stability index by setting is: under setting [1], 2.21 ± 0.15; under setting [2], 2.23 ± 0.18.

As to EEVDVTSVDPIAAFCSSDEELEDS [RBBP5], the protein stability index is, setting by setting: under setting [1], 5.55 ± 0.2; under setting [2], 5.62 ± 0.16.

In the case of EGNSMRCGRKLAKDGEYCWRWTGF [GMCL1], the protein stability index was 2.49 ± 0.22 under setting [1] and 2.11 ± 0.14 under setting [2].

For EHLPVKPDTMEKLRTHIDAIILAL [DENND6A], the protein stability index under setting [1] stood at 2.64 ± 0.3 and the protein stability index under setting [2] worked out at 2.63 ± 0.51.

Turning to EILTCGRDGEPEPMQKLQDLVNRT [RBBP5], the protein stability index runs as follows: under setting [1], 4.01 ± 0.2; under setting [2], 3.78 ± 0.25.

For the sequence EIPKNCVVAAVGKELIIFRLVAPT [WDR41], the protein stability index by setting is: under setting [1], 2.69 ± 0.6; under setting [2], 2.28 ± 0.43.

In the case of EIVNYEPLGLEADMWSIGVITYIL [DAPK3], the protein stability index runs as follows: under setting [1], 2.35 ± 0.48; under setting [2], 1.98 ± 0.27.

On to EKDWGLEGYVWRGSQLEDQALRGL [ZSWIM9], for which the protein stability index is, setting by setting: under setting [1], 2.97 ± 0.48; under setting [2], 3.62 ± 0.58.

Consider EKEESRREAEKQNYLAEHCPPLHI [TNNI2], for which the protein stability index under setting [1] came out at 4.93 ± 0.17 and the protein stability index under setting [2] came out at 4.94 ± 0.22.

Take ELCCVAELDNPMQQKWTKPARAGS [C2CD2L]: the protein stability index under setting [1] was 3.37 ± 0.39 and the protein stability index under setting [2] is 3.6 ± 0.2.

As to ELGLLIFFLFIGVILFSSAVYFAE [KCNA1], the protein stability index is, setting by setting: under setting [1], 2.04 ± 0.53; under setting [2], 2.06 ± 0.37.

In the case of ELKLEQQEAAERESKLLRDLSAAN [LRRC45], the protein stability index is 4.62 ± 0.18 under setting [1] and 4.77 ± 0.23 under setting [2].

In the case of ELTFSYIAFDGVVGSGGRRDSTAR [RTN2], the protein stability index was found to be 3.17 ± 0.079 under setting [1] and 3.15 ± 0.28 under setting [2].

ELVSADVIDLFDEQGLSALHLAAQ [RIPK4]: the protein stability index worked out at 3.02 ± 0.78 under setting [1] and 3.56 ± 0.4 under setting [2].

EMDMVVFRPEMKKHSWCLKRKNPP [N4BP2L1]: the protein stability index runs as follows: under setting [1], 3.25 ± 0.31; under setting [2], 3.25 ± 0.18.

In the case of EMLGRKCLTLATAVVQLYLALPPG [WAS], the protein stability index by setting is: under setting [1], 3.02 ± 0.3; under setting [2], 3.3 ± 0.55.

Take EMRIPALNAYMKSLLSLPVWVLMD [NCF4]: the protein stability index is 3.26 ± 0.95 under setting [1] and 2.92 ± 0.55 under setting [2].

Take EMSEKRGPTSSNPRKRHREDSDVE [MLH1]: the protein stability index came out at 5.49 ± 0.44 under setting [1] and 5.49 ± 0.14 under setting [2].

In turn, ENFKGLAIPYLEHIIHVWEETGSR [VPS39] came in with a protein stability index under setting [1] of 2.52 ± 0.32 and a protein stability index under setting [2] of 2.48 ± 0.4.

For ENILMCVDDAYVRRMAAEATEWQK [SRPK2], the protein stability index is, setting by setting: under setting [1], 3.52 ± 0.26; under setting [2], 3.55 ± 0.17.

For ENVKDVPFGFQTVTSDVNKLSSFY [SERPINB5], the protein stability index under setting [1] was 2.74 ± 0.15 and the protein stability index under setting [2] is 3.09 ± 0.46.
